Experimental data reported in the RNAGym collection of RNA variant scans (doi:10.1021/acssynbio.7b00057).

B1: Pistol ribozyme (parent)
chain: GGGUCGUUGUUCCAUAAUCGCGUGGAUAUGGCACGCAAGUUUCUACCGGGCACCGUAAAUGUCCGACUGGAGCCGUUCGGGCGGCUAUAAACAGACCUCAGGCCCGAAGCGUGGCGGCACCUGCCGCCGGUGGUAAAAAAGAUCGGAAGAGCACACGUCU

Variants of: B1
Assay: aptazyme ON/OFF ratio, guanine; higher = stronger switching; co-transcriptional cleavage with and without guanine

| Variant | aptazyme ON/OFF ratio |
| --- | --- |
| GGGUCGACGUGGAAUAAUCGCGUGGAUAUGGCACGCAAGUUUCUACCGGGCACCGUAAAUGUCCGACUGGAGCCGUUCGGGCGGCUAUAAACAGACCUCAGGCCCGAAGCGUGGCGGCACCUGCCGCCGGUGGUAAAAAAGAUCGGAAGAGCACACGUCU [U7A U8C U11G C12G C13A] | 1.04 |
| GGGUCGACGUGGUAUAAUCGCGUGGAUAUGGCACGCAAGUUUCUACCGGGCACCGUAAAUGUCCGACUGGAGCCGUUCGGGCGGCUAUAAACAGACCUCAGGCCCGAAGCGUGGCGGCACCUGCCGCCGGUGGUAAAAAAGAUCGGAAGAGCACACGUCU [U7A U8C U11G C12G C13U] | 1.11 |
| GGGUCGACGUGGGAUAAUCGCGUGGAUAUGGCACGCAAGUUUCUACCGGGCACCGUAAAUGUCCGACUGGAGCCGUUCGGGCGGCUAUAAACAGACCUCAGGCCCGAAGCGUGGCGGCACCUGCCGCCGGUGGUAAAAAAGAUCGGAAGAGCACACGUCU [U7A U8C U11G C12G C13G] | 1.1 |
| GGGUCGACGUACAAUAAUCGCGUGGAUAUGGCACGCAAGUUUCUACCGGGCACCGUAAAUGUCCGACUGGAGCCGUUCGGGCGGCUAUAAACAGACCUCAGGCCCGAAGCGUGGCGGCACCUGCCGCCGGUGGUAAAAAAGAUCGGAAGAGCACACGUCU [U7A U8C U11A C13A] | 1.14 |
| GGGUCGACGUACGAUAAUCGCGUGGAUAUGGCACGCAAGUUUCUACCGGGCACCGUAAAUGUCCGACUGGAGCCGUUCGGGCGGCUAUAAACAGACCUCAGGCCCGAAGCGUGGCGGCACCUGCCGCCGGUGGUAAAAAAGAUCGGAAGAGCACACGUCU [U7A U8C U11A C13G] | 1.13 |
| GGGUCGACGUACUAUAAUCGCGUGGAUAUGGCACGCAAGUUUCUACCGGGCACCGUAAAUGUCCGACUGGAGCCGUUCGGGCGGCUAUAAACAGACCUCAGGCCCGAAGCGUGGCGGCACCUGCCGCCGGUGGUAAAAAAGAUCGGAAGAGCACACGUCU [U7A U8C U11A C13U] | 1.15 |
| GGGUCGACGUGCCAUAAUCGCGUGGAUAUGGCACGCAAGUUUCUACCGGGCACCGUAAAUGUCCGACUGGAGCCGUUCGGGCGGCUAUAAACAGACCUCAGGCCCGAAGCGUGGCGGCACCUGCCGCCGGUGGUAAAAAAGAUCGGAAGAGCACACGUCU [U7A U8C U11G] | 1.37 |
| GGGUCGACGUCCCAUAAUCGCGUGGAUAUGGCACGCAAGUUUCUACCGGGCACCGUAAAUGUCCGACUGGAGCCGUUCGGGCGGCUAUAAACAGACCUCAGGCCCGAAGCGUGGCGGCACCUGCCGCCGGUGGUAAAAAAGAUCGGAAGAGCACACGUCU [U7A U8C U11C] | 1.2 |
| GGGUCGACGUCAUAUAAUCGCGUGGAUAUGGCACGCAAGUUUCUACCGGGCACCGUAAAUGUCCGACUGGAGCCGUUCGGGCGGCUAUAAACAGACCUCAGGCCCGAAGCGUGGCGGCACCUGCCGCCGGUGGUAAAAAAGAUCGGAAGAGCACACGUCU [U7A U8C U11C C12A C13U] | 1.37 |
| GGGUCGACGUCAGAUAAUCGCGUGGAUAUGGCACGCAAGUUUCUACCGGGCACCGUAAAUGUCCGACUGGAGCCGUUCGGGCGGCUAUAAACAGACCUCAGGCCCGAAGCGUGGCGGCACCUGCCGCCGGUGGUAAAAAAGAUCGGAAGAGCACACGUCU [U7A U8C U11C C12A C13G] | 1.31 |
| GGGUCGACGUCAAAUAAUCGCGUGGAUAUGGCACGCAAGUUUCUACCGGGCACCGUAAAUGUCCGACUGGAGCCGUUCGGGCGGCUAUAAACAGACCUCAGGCCCGAAGCGUGGCGGCACCUGCCGCCGGUGGUAAAAAAGAUCGGAAGAGCACACGUCU [U7A U8C U11C C12A C13A] | 1.44 |
| GGGUCGACGUAUCAUAAUCGCGUGGAUAUGGCACGCAAGUUUCUACCGGGCACCGUAAAUGUCCGACUGGAGCCGUUCGGGCGGCUAUAAACAGACCUCAGGCCCGAAGCGUGGCGGCACCUGCCGCCGGUGGUAAAAAAGAUCGGAAGAGCACACGUCU [U7A U8C U11A C12U] | 1.23 |
| GGGUCGACGUCCUAUAAUCGCGUGGAUAUGGCACGCAAGUUUCUACCGGGCACCGUAAAUGUCCGACUGGAGCCGUUCGGGCGGCUAUAAACAGACCUCAGGCCCGAAGCGUGGCGGCACCUGCCGCCGGUGGUAAAAAAGAUCGGAAGAGCACACGUCU [U7A U8C U11C C13U] | 1.17 |
| GGGUCGACGUCCAAUAAUCGCGUGGAUAUGGCACGCAAGUUUCUACCGGGCACCGUAAAUGUCCGACUGGAGCCGUUCGGGCGGCUAUAAACAGACCUCAGGCCCGAAGCGUGGCGGCACCUGCCGCCGGUGGUAAAAAAGAUCGGAAGAGCACACGUCU [U7A U8C U11C C13A] | 1.19 |
| GGGUCGACGUCCGAUAAUCGCGUGGAUAUGGCACGCAAGUUUCUACCGGGCACCGUAAAUGUCCGACUGGAGCCGUUCGGGCGGCUAUAAACAGACCUCAGGCCCGAAGCGUGGCGGCACCUGCCGCCGGUGGUAAAAAAGAUCGGAAGAGCACACGUCU [U7A U8C U11C C13G] | 1.13 |
| GGGUCGACGUCGUAUAAUCGCGUGGAUAUGGCACGCAAGUUUCUACCGGGCACCGUAAAUGUCCGACUGGAGCCGUUCGGGCGGCUAUAAACAGACCUCAGGCCCGAAGCGUGGCGGCACCUGCCGCCGGUGGUAAAAAAGAUCGGAAGAGCACACGUCU [U7A U8C U11C C12G C13U] | 1.5 |
| GGGUCGACGUCGAAUAAUCGCGUGGAUAUGGCACGCAAGUUUCUACCGGGCACCGUAAAUGUCCGACUGGAGCCGUUCGGGCGGCUAUAAACAGACCUCAGGCCCGAAGCGUGGCGGCACCUGCCGCCGGUGGUAAAAAAGAUCGGAAGAGCACACGUCU [U7A U8C U11C C12G C13A] | 1.32 |
| GGGUCGACGUCGGAUAAUCGCGUGGAUAUGGCACGCAAGUUUCUACCGGGCACCGUAAAUGUCCGACUGGAGCCGUUCGGGCGGCUAUAAACAGACCUCAGGCCCGAAGCGUGGCGGCACCUGCCGCCGGUGGUAAAAAAGAUCGGAAGAGCACACGUCU [U7A U8C U11C C12G C13G] | 1.22 |

| Variant | aptazyme ON/OFF ratio |
| --- | --- |
| GGGUCGACGUGACAUAAUCGCGUGGAUAUGGCACGCAAGUUUCUACCGGGCACCGUAAAUGUCCGACUGGAGCCGUUCGGGCGGCUAUAAACAGACCUCAGGCCCGAAGCGUGGCGGCACCUGCCGCCGGUGGUAAAAAAGAUCGGAAGAGCACACGUCU [U7A U8C U11G C12A] | 1.19 |
| GGGUCGACGUGGCAUAAUCGCGUGGAUAUGGCACGCAAGUUUCUACCGGGCACCGUAAAUGUCCGACUGGAGCCGUUCGGGCGGCUAUAAACAGACCUCAGGCCCGAAGCGUGGCGGCACCUGCCGCCGGUGGUAAAAAAGAUCGGAAGAGCACACGUCU [U7A U8C U11G C12G] | 1.09 |
| GGGUCGACGUGUCAUAAUCGCGUGGAUAUGGCACGCAAGUUUCUACCGGGCACCGUAAAUGUCCGACUGGAGCCGUUCGGGCGGCUAUAAACAGACCUCAGGCCCGAAGCGUGGCGGCACCUGCCGCCGGUGGUAAAAAAGAUCGGAAGAGCACACGUCU [U7A U8C U11G C12U] | 1.28 |
| GGGUCGACGUAUUAUAAUCGCGUGGAUAUGGCACGCAAGUUUCUACCGGGCACCGUAAAUGUCCGACUGGAGCCGUUCGGGCGGCUAUAAACAGACCUCAGGCCCGAAGCGUGGCGGCACCUGCCGCCGGUGGUAAAAAAGAUCGGAAGAGCACACGUCU [U7A U8C U11A C12U C13U] | 1.28 |
| GGGUCGACGUAUAAUAAUCGCGUGGAUAUGGCACGCAAGUUUCUACCGGGCACCGUAAAUGUCCGACUGGAGCCGUUCGGGCGGCUAUAAACAGACCUCAGGCCCGAAGCGUGGCGGCACCUGCCGCCGGUGGUAAAAAAGAUCGGAAGAGCACACGUCU [U7A U8C U11A C12U C13A] | 1.15 |
| GGGUCGACGUAUGAUAAUCGCGUGGAUAUGGCACGCAAGUUUCUACCGGGCACCGUAAAUGUCCGACUGGAGCCGUUCGGGCGGCUAUAAACAGACCUCAGGCCCGAAGCGUGGCGGCACCUGCCGCCGGUGGUAAAAAAGAUCGGAAGAGCACACGUCU [U7A U8C U11A C12U C13G] | 1.24 |
| GGGUCGACGUCUCAUAAUCGCGUGGAUAUGGCACGCAAGUUUCUACCGGGCACCGUAAAUGUCCGACUGGAGCCGUUCGGGCGGCUAUAAACAGACCUCAGGCCCGAAGCGUGGCGGCACCUGCCGCCGGUGGUAAAAAAGAUCGGAAGAGCACACGUCU [U7A U8C U11C C12U] | 1.46 |
| GGGUCGACGUCGCAUAAUCGCGUGGAUAUGGCACGCAAGUUUCUACCGGGCACCGUAAAUGUCCGACUGGAGCCGUUCGGGCGGCUAUAAACAGACCUCAGGCCCGAAGCGUGGCGGCACCUGCCGCCGGUGGUAAAAAAGAUCGGAAGAGCACACGUCU [U7A U8C U11C C12G] | 1.63 |
| GGGUCGACGUCACAUAAUCGCGUGGAUAUGGCACGCAAGUUUCUACCGGGCACCGUAAAUGUCCGACUGGAGCCGUUCGGGCGGCUAUAAACAGACCUCAGGCCCGAAGCGUGGCGGCACCUGCCGCCGGUGGUAAAAAAGAUCGGAAGAGCACACGUCU [U7A U8C U11C C12A] | 1.39 |
| GGGUCGACGUGUUAUAAUCGCGUGGAUAUGGCACGCAAGUUUCUACCGGGCACCGUAAAUGUCCGACUGGAGCCGUUCGGGCGGCUAUAAACAGACCUCAGGCCCGAAGCGUGGCGGCACCUGCCGCCGGUGGUAAAAAAGAUCGGAAGAGCACACGUCU [U7A U8C U11G C12U C13U] | 1.1 |
| GGGUCGACGUGUAAUAAUCGCGUGGAUAUGGCACGCAAGUUUCUACCGGGCACCGUAAAUGUCCGACUGGAGCCGUUCGGGCGGCUAUAAACAGACCUCAGGCCCGAAGCGUGGCGGCACCUGCCGCCGGUGGUAAAAAAGAUCGGAAGAGCACACGUCU [U7A U8C U11G C12U C13A] | 1.08 |
| GGGUCGACGUGUGAUAAUCGCGUGGAUAUGGCACGCAAGUUUCUACCGGGCACCGUAAAUGUCCGACUGGAGCCGUUCGGGCGGCUAUAAACAGACCUCAGGCCCGAAGCGUGGCGGCACCUGCCGCCGGUGGUAAAAAAGAUCGGAAGAGCACACGUCU [U7A U8C U11G C12U C13G] | 1.06 |
| GGGUCGACGUGAUAUAAUCGCGUGGAUAUGGCACGCAAGUUUCUACCGGGCACCGUAAAUGUCCGACUGGAGCCGUUCGGGCGGCUAUAAACAGACCUCAGGCCCGAAGCGUGGCGGCACCUGCCGCCGGUGGUAAAAAAGAUCGGAAGAGCACACGUCU [U7A U8C U11G C12A C13U] | 1.16 |
| GGGUCGACGUGAGAUAAUCGCGUGGAUAUGGCACGCAAGUUUCUACCGGGCACCGUAAAUGUCCGACUGGAGCCGUUCGGGCGGCUAUAAACAGACCUCAGGCCCGAAGCGUGGCGGCACCUGCCGCCGGUGGUAAAAAAGAUCGGAAGAGCACACGUCU [U7A U8C U11G C12A C13G] | 1.12 |
| GGGUCGACGUGAAAUAAUCGCGUGGAUAUGGCACGCAAGUUUCUACCGGGCACCGUAAAUGUCCGACUGGAGCCGUUCGGGCGGCUAUAAACAGACCUCAGGCCCGAAGCGUGGCGGCACCUGCCGCCGGUGGUAAAAAAGAUCGGAAGAGCACACGUCU [U7A U8C U11G C12A C13A] | 1.07 |
| GGGUCGACGUCUGAUAAUCGCGUGGAUAUGGCACGCAAGUUUCUACCGGGCACCGUAAAUGUCCGACUGGAGCCGUUCGGGCGGCUAUAAACAGACCUCAGGCCCGAAGCGUGGCGGCACCUGCCGCCGGUGGUAAAAAAGAUCGGAAGAGCACACGUCU [U7A U8C U11C C12U C13G] | 1.29 |
| GGGUCGACGUCUUAUAAUCGCGUGGAUAUGGCACGCAAGUUUCUACCGGGCACCGUAAAUGUCCGACUGGAGCCGUUCGGGCGGCUAUAAACAGACCUCAGGCCCGAAGCGUGGCGGCACCUGCCGCCGGUGGUAAAAAAGAUCGGAAGAGCACACGUCU [U7A U8C U11C C12U C13U] | 1.29 |
| GGGUCGACGUCUAAUAAUCGCGUGGAUAUGGCACGCAAGUUUCUACCGGGCACCGUAAAUGUCCGACUGGAGCCGUUCGGGCGGCUAUAAACAGACCUCAGGCCCGAAGCGUGGCGGCACCUGCCGCCGGUGGUAAAAAAGAUCGGAAGAGCACACGUCU [U7A U8C U11C C12U C13A] | 1.28 |
